This series is described as follows: label from the status in PepcDB records.

With “MCHSGTFHLTAGESVEWVLTWAPSFEPHPPMPDYTRSLESTLSFWASWVEELPHQRLYDAEVRRSMLVLRALTDLQTGGIVAAPTTSLPEDFGGIRNWDYRYVWLRDSALTIEALVEYGFSQAALQWRTWLLRAIAGDPENLRIMYGLGGERHLPERELQHLRGYENSVPVRVGNGAAEQYQADVVGEVMVALETIRRAGCLEDEFSWGMQKAILDFQEANFDRKDQGIWEMRSEPQYFTHGRAMMWAGFDRGIKAIEEFNLDGPIERWRELRAKLREEIMTNGFNEEIQSFTQCYDNTQVDASLLQLAQIGFIGFDDPKMLSTVARIEQELLDAHGFLHRYHTDGSDGLAGDEYPFLICSFWLVEQYASSNRLDEAKEKMNRILAVQSPLGLLAEEYSTHHGRLAGNYPQAFSHIGLISAARAINFEEARNRLEHHHHHH”, the protein production entry was “failed”. With “MCKPPMRLLTQTGLPRSSERQIRILEIVTGNRKGKHQPKPISKPQPNISMPKIIEAIYENGVFKPLQKVNFRPGSKVRIVIQEDKKEILRKYKGVFGKAEVEELREYEGEVMLLEHHHHHH”, the protein production entry is recorded as “failed”. “MCLGIPARVVEVLDGPLPMAVVDMAGEQRPCSVMYVPEVQVGQFVLLQNGYAMEVLDEKSAQESLATIAEFNLVQQVQLAPRE”: the protein production result was “failed”. As for “MCPYITRRNDVMNDTFDYIFGYALSTALARYWVNPDGSQGGIVSIDAKIDASVMIGKDAVVFPDANIAERACIAEKVCIGNAVRIGKHAMIDHGASIGDRSNIGERSRIYQDSFIGENAVIAARACIGEKVYIGNFVSLAKDSIIDDGVNIGERSSIGERTRIRQGSFIRKGCVIRQRSVIAKRAYIDEGVYIGNVVRIGEESMIHRRSRIGSGARIGGSVCIGVYCRIDGSVRIGQHADIGEWVNIDGHARIGNFARIGEWSRIGGRANIAAHVVLEKQSIIHSETCIQDASKTSVDMPKDAGI”, the entry is “failed”; as for “MCSYARATDANGESFIYCRTWQGQFFRFKLEDRVYDYVTTFAKSDACLATDPDDPTKIYCALNEYNKITCIDLTKNPEDSGFETDVCGIQGPGAYQDGHVSVARLNNPQQILSMHDPETGEKVIYICDANNNCVRMYNMETKLMSTVAGIGGKSGYAAGNPTVSRMNRPYGICITPENDIYVADAGNKVIMKLAFMLEHHHHHH”, “failed”; as for “MCTPFIFVVYAKSKYLCVLISNEMGKNKLEKFADMASYPHVFEYPYSAVDNVPFDMKGKWHQEFFGNDHPIVLELGCGRGEYTVGLGRMFPDKNFIAVDIKGSRMWTGATESLQAGMKNVAFLRTNIEIIERFFAAGEVSEIWLTFSDPQMKKATKRLTSTYFMERYRKFLKPDGIIHLKTDSNFMFTYTKYMIEANQLPVEFITEDLYHSDLVDDILSIKTYYEQQWLDRGLNIKYIKFRLPLEHHHHHH”, “failed”.

As for “MCVHTRKPDGLHPKPVSHCPVIDTGQSEWRSFTFTTICMGFRPRQAYRQPSPIANETENTMSNSNIQQEAQDIHDQLPESVDASPEDIEERLTTLVDDYRVPLDEAQRSVVSTYLSDSDVDRDDVSSENENQQVDLEEITEAEQWVDITAKVADLWEPRSDSIAQVGLLGDETGTIKFTKWAKSDLEALTEGQVYRLGNVVTDEYQGQYSVKLNRTTTIEALDQDIEVGDDTTDAEGALVDIQSGSGLIKRCPEDDCTRVLQNGRCSEHGEGEGEFDLRIKGVIDNGDTVQEVIFDKEATEQVADITLAQAQEMAMDALDTSVVADEIREVTLGRYYRVQGPELGRYLLVNEFEQLAEMHDPEQLLITARSILEHHHHHH”, the protein production result was “not failed”. As for “MCVSSSIQTAILDWQCVDGIDIPVSRQFGDVYFSKDNGLLETRHVFLNGNNLTERLADLKPYQYFCVGETGFGTGLNILAVWQLWQQVRPDNHSHLHVISVEKFPLSKSDLERALRAWPELIILAEQLIEQYPFPIAGCHRLNFPDERFSLDLWLGDAHDVFPSIVKTHSVDAWFLDGFAPSCNPELWETQVLNQIVRLSDYGTTFASFSVAGILKRGLKAHGIHISRPRGFGHKREMLKAIWPFPDHESTTTVKGNQPSTQQHFAVIGAGIAGLHCAWSLAQRGHRVTLVDQSQPLSGASGNPLALLNPKLCPITQCHDHLMVLCWQYARRFYQNFEAFRLIQVNQLALKASDSLLNLAEQYPKDVLDAHSAQQSPLETQYDYLTLHYAGVISPQLFCNQVLQHPLIEFKQFKINQIIEIDGTVQLLSSEQAILESNAAIVCCARESGKLFEQYPTLKPIRGQVSWFEQHTFPFAPDQAFSYGGYCMQLHPQQLILGASFHPQRDDDEVLLEDHVHNFNLIHSVFPAYAQTLPPVEEWHGRASVRAQSPDYFPLVGQLQDHSKLFTLAGLGSKGYLFAPLNSEILVAHILGEACPVSANLLQKLNPQRFLKKVKIKKPYYSS”, the entry is “failed”.

(Values after a protein production outcome set (Wang et al. 2014).)
